# Measured values: patent publication US8828695B2, “Method for producing butanol using two-phase extractive fermentation” (Butamax Advanced Biofuels LLC, priority 2008, dated 2014)
# B1: sadB: butanol dehydrogenase from Achromobacter xylosoxidans (protein SEQ ID NO:10), expressed in E. coli Mach1/pTrc99a::sadB (protein)
# chain: MKALVYHGDHKISLEDKPKPTLQKPTDVVVRVLKTTICGTDLGIYKGKNPEVADGRILGHEGVGVIEEVGESVTQFKKGDKVLISCVTSCGSCDYCKKQLYSHCRDGGWILGYMIDGVQAEYVRIPHADNSLYKIPQTIDDEIAVLLSDILPTGHEIGVQYGNVQPGDAVAIVGAGPVGMSVLLTAQFYSPSTIIVIDMDENRLQLAKELGATHTINSGTENVVEAVHRIAAEGVDVAIEAVGIPATWDICQEIVKPGAHIANVGVHGVKVDFEIQKLWIKNLTITTGLVNTNTTPMLMKVASTDKLPLKKMITHRFELAEIEHAYQVFLNGAKEKAMKIILSNAGAA
# modifications: Achromobacter xylosoxidans
# Experiment: Activity of the enzyme expressed from the sadB gene in cell-free extracts
# Type: biochemical, Achromobacter xylosoxidans
# Details: cell-free extracts of Mach1/pTrc99a::sadB, isobutyraldehyde as the standard
# Procedure: The sadB coding region was then cloned into the vector pTrc99a (Amann et al., Gene 69: 301-315, 1988). The pCR4Blunt::sadB was digested with EcoRI, releasing the sadB fragment, which was ligated with EcoRI-digested pTrc99a to generate pTrc99a::sadB. This plasmid was transformed into E. coli Mach 1 cells and the resulting transformant was named Mach1/pTrc99a::sadB. The activity of the enzyme expressed from the sadB gene in these cells was determined to be 3.5 mmol/min/mg protein in cell-free extracts when analyzed using isobutyraldehyde as the standard.
molecule,measurement,value
B1,activity of the enzyme expressed from the sadB gene,3.5 mmol/min/mg protein
